Test results from publication PMC3160658.

Tests used:
RAD52;RPA = RAD52;RPA (Homo sapiens;human?, UniProt P43351;P27694;P15927;P35244 1-418;1-616;1-270;1-121, |); experiment: FRET titration
RAD52 Y104D = molecular target: T1, RAD52 Y104D (Homo sapiens, UniProt P43351 1-418, Y104D); experiment: EMSA
T1 sequence: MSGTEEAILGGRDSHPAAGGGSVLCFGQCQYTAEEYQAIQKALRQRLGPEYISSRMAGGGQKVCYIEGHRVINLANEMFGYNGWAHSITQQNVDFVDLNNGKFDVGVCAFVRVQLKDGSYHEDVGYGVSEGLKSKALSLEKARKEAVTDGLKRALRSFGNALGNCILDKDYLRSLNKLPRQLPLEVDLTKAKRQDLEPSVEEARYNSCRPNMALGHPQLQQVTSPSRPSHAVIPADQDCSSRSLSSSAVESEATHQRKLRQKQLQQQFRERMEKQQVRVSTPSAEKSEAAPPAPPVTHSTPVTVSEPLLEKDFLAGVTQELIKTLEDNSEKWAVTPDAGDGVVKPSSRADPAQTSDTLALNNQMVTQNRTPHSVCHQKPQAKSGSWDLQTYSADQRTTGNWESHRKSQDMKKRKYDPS

RAD52;RPA, sequence (P27694 whole entry, chain 2 of 3): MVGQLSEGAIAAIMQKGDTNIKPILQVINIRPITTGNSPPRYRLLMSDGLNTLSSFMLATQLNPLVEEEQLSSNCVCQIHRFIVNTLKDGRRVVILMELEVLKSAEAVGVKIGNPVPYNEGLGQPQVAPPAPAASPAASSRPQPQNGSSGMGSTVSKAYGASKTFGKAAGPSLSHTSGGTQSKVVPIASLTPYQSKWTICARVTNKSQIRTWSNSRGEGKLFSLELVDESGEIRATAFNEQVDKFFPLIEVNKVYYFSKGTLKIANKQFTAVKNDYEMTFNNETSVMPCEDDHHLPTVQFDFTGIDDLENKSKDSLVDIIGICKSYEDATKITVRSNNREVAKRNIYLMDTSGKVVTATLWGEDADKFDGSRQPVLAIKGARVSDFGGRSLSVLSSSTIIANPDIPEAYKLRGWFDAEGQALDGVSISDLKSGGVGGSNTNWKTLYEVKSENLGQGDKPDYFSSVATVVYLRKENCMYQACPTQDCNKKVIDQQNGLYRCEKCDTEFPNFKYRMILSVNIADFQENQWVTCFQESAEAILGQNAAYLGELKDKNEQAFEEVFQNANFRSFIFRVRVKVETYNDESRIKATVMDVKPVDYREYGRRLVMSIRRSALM
RAD52;RPA, sequence (P15927 whole entry, chain 3 of 3): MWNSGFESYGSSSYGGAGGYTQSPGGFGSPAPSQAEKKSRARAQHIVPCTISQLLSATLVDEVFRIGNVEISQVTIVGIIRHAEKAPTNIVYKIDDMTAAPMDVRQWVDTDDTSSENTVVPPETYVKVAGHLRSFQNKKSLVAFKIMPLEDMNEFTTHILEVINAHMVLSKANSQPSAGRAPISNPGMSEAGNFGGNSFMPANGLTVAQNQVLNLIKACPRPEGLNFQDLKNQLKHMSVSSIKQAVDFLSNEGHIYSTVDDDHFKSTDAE
RAD52;RPA, sequence (P35244 whole entry, chain 4 of 3): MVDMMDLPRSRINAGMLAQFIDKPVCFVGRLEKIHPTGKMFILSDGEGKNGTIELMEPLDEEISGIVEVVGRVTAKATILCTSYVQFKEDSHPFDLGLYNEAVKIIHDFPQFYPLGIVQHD

TTTTTTTTTTTTTTTTTTTTTTTTTTTTTT (ssDNA) [Cy5-(dT)30-Cy3]
binding result (RAD52;RPA): binds | binding result (RAD52 Y104D): binds
